Data from a protein production outcome set (Wang et al. 2014).

Assay: label from the status in PepcDB records
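Note: failed if final PepcDB status was selected cloned or expressed and not failed if soluble or beyond.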

Row | Sequence | protein production
1 | MKRLFLPLLGFLSLVLMCCNDNKESGTDSYDPNKPVTIDYFTPDTGRVAEKVIIIGNNFGNDKSAVTVLFTDNMEKENKAAVVGVDNTTIYCMAPRQAEGFNKITVKVNDQTVVADETFKYSVSENVSTIAGDFVQADGAGKDGSLAEATFGQMFGVACIDEQSGIVGQAWNNNSVRYISIDEDAVITIQSGPVVGKVAVSNDKTLAYGATINGANTVYVYKKSQAWVPSRLSDISSGTDVWAVALNGDNQWLYYVTANGRLGRIEVDNPTHNEILFEHNDFSGGPFAYIAYSAFEDCFYVTTDKNKILKVWVKEDGTHAYEQINQNNTGTTDGFLADEAKFQYLRGLTIDEDGNIFVCQGDNSHVIRKIAYDENMEKRYVTTVLGTSTVHGTDDGSPDIALFNGPQDISYDGNGGYWIAMRYEPALRKYSIE | failed
2 | MYRDRVRLPSLLDKVMSAAEAADLIQDGMTVGMSGFTRAGEAKAVPQALAMRAKERPLRISLMTGASLGNDLDKQLTEAGVLARRMPFQVDSTLRKAINAGEVMFIDQHLSETVEQLRNHQLKLPDIAVIEAAAITEQGHIVPTTSVGNSASFAIFAKQVIVEINLAHSTNLEGLHDIYIPTYRPTRTPIPLTRVDDRIGSTAIPIPPEKIVAIVINDQPDSPSTVLPPDGETQAIANHLIDFFKREVDAGRMSNSLGPLQAGIGSIANAVMCGLIESPFENLTMYSEVLQDSTFDLIDAGKLRFASGSSITLSPRRNADVFGNLERYKDKLVLRPQEISNHPEVVRRLGIIGINTALEFDIYGNVNSTHVGGTKMMNGIGGSGDFARNAHLAIFVTKSIAKGGNISSVVPMVSHVDHTEHDVDILVTEQGLADLRGLAPRERARVIIENCVHPSYQAPLLDYFEAACAKGGHTPHLLREALAWHLNLEERGHMLAG | not failed
3 | MAIYTVKALITDPIDEILIKTLREKGIQVDYMPEISKEELLNIIGNYDIIVVRSRTKVTKDVIEKGKKLKIIARAGIGLDNIDTEEAEKRNIKVVYAPGASTDSAVELTIGLMIAAARKMYTSMALAKSGIFKKIEGLELAGKTIGIVGFGRIGTKVGIIANAMGMKVLAYDILDIREKAEKINAKAVSLEELLKNSDVISLHVTVSKDAKPIIDYPQFELMKDNVIIVNTSRAVAVNGKALLDYIKKGKVYAYATDVFWNEPPKEEWELELLKHERVIVTTHIGAQTKEAQKRVAEMTTQNLLNAMKELGMI | not failed
4 | MHEQLSPRDQELEARLVELETRLSFQEQALTELSEALADARLTGARNAELIRHLLEDLGKVRSTLFADAADEPPPPHY | not failed
5 | MADAPIDIFQSILSRKSIRAFTDQPVTQETIREILKLAARAPSGTNLQPWQVIVLTGKILQKVGQELSQLVLSGIKGEREYHYYPRQWREPYLSRRRKVGLDLYKSLGIQKGDQEKMLHQKAKNFLFYGAPVGLLFTIDHDMEMGSWLDLGMFMQTIMLAARGFGLDTCAQAAFADYHKQIRSLLSVPSDRHIICGMALGYRDMNAPENNFETEREPIDNFVHFIKSYP | not failed
6 | MPAIQSELDVNGEDFARNREAMLAAVAGFRELEQKVLDKAAEARPKFEKRGQLLPRERLALLLDPGAPFLELSSLAGYKLHDDKDGTQAGGGIIAGIGYIAGVRCLVSASNSAIKGGTISPTGLKKTLRLQQIAMENKLPVVTLTESGGANLNYAAEIFVEGARGFANQARISAMGIPQVTVVHGSSTAGGAYQPGLSDYVVVVRGKAKMFLAGPPLLKAATGEIASDEELGGAELHAQVAGTAEYLAENDADGVRLAREIVGMLPWNAQLPARPARSWREPLYPVEELLGVVPADPKKPYDVREIVARIADGSEFLDFKNEFDGQTVCGHLRIEGHACGLIGNNGPITPQGAAKAAQFIQLCEQSNTPLLFLHNTTGFMVGTESERQGVIKHGSKMIQAVANARVPKLTLVVGGSYGAGNYAMCGRGLDPRFIFAWPNSRTAVMGGAQAGKVLRIVTEEKHAKEGKEADPKMLEMLETVTAQKLDSQSTALYGTASLWDDGLVDPRDSRRLLGYLLDICAEAEARPLKGNSFGVAR | not failed
7 | MKDLIIVGAGGFGREVAWLVEDINNNNREWNLLGFIDENEQNHGNELNGYKVLGGFDYLNNKKNIYYVCAIGNAKVRKEIVEKKCSKYNIKPANLIHPSVIMSKKYNKMGEGCIICASNIITVNVTLGDHIIVNLDCTIGHDVVINDYVTIYPSVNVSGNCNIGECVELGTGTQVIQGNNIGDRTIVGAGSVVIRNIEGDKVAVGVPTKVIK | failed
8 | MEVKEVELELSSEATFLSKTSIGEITAGEKGLNPMELLLVSIGSCSGVDVYHILKKKRQEVKDIKIFLKGKRREKHPKIYEEIEIKYVAVGKVEEKALEQAVKLSTEKYCSVLAMVKPSTNLKISWEVKWEE | not failed
9 | MTFAWGRGSHGGAGMRIVQITDTHFSPTKAHFNGNWAPLAAWIEQSGADLVIHTGDLSVDGADRDDDIAFCMDLMREISAPMLLVPGNHDVGHLPGSLQPVNAGRLERWRRLVGPDYWMEDAGSWRLIGLDSLLMGFDDAEEEAQFDWLRTVLESRGGRRVALFAHKPLFVDAPGEGDTGYWSVRPAQRQRLYDLIATHDVALFASGHLHRAWQGKYENTSLVWGPSAAFVVGDMERDMPGERLLGAVIHQFSDTVTSEIVAIPGMTAYVLDDVVAEVYPHEAHKARKRVASLEHHHHHH | failed
10 | MIPPSIRLTLRNLIVNTDPGTLLFLLGLPSFYLIVLGLMFQSIIPNVPFAGKDISYAQFLSPGVVAMQPFIAGSIGGSMLWSDRRWGMFEQLIVGPFHRIDYLLGIIYVSIIFSVGGAFLMFLVSYAITGFLVSYDINLLMIAVVLIVSSILFTSIFLVLSVFIRTIQTYNTVTMFVFFILDFASSAFYPINSRTPLGLRIVSYMNPLTYIVDAVRNMMFYKIGMQDYISLLIVVVLSGFFFLIALVSYGRARV | failed
11 | MINKTLLQKRFNGAAVSYDRYANVQKKMAHSLLSILKERYSETASIRILELGCGTGYVTEQLSKLFPKSHITAVDFAESMIAIAQTRQNVKNVTFHCEDIERLRLEESYDVIISNATFQWLNNLQQVLRNLFQHLSIDGILLFSTFGHETFQELHASFQRAKEERNIKNETSIGQRFYSKDQLLHICKIETGDVHVSETCYIESFTEVKEFLHSIRKVGATNSNEGSYCQSPSLFRAMLRIYERDFTGNEGIMATYHALFIHITKEGKR | failed
12 | AADKRIDGNGNPETREIKISDYDEITFVGSADFEYEQSDKAPYLSVTIDENLFDYLVTEVEGGTLKIYPKSIKKGFNNNSYDLRPTVYKIKSNSKELKELNTVGSGSFIISKPTKVNRMEINMAGSGNVELRGPVKGYKLECNMAGSGNIIAKDIQLDNLSCSLASSGEIEVIGTVDRASFNVAGSGEIKAFDCQARKAECNIASSGEISVYATQILDANIVGSGEIHYKGDPEISKSIMGSGSINKVK | not failed
13 | MGHHHHHHSHMGNIPEAIASYRTALKLKPDFPDAYCNLAHCLQIVCDWTDYDERMKKLVSIVADQLEKNRLPSVHPHHSMLYPLSHGFRKAIAERHGNLCLDKINVLHKPPYEHPKDLKLSDGRLRVGYVSSDFGNHPTSHLMQSIPGMHNPDK | failed
14 | MKKSSILILIIICLVGCKKGSNETTITGEIKGLGTDTLYLYGMDELYDRIDTIYVENDKFSYTTSVDTITSAYLLLKNRIEYPVFLDKGNKIKIKGDTINLNFLTISGNIYNEEFTDFQKALEDPADPSEKAGEETVDKRITVEKANTAEEMAEEFILQHHSSYVSLYLLDKYFVQKETPDFSKIKKLVEVMTGVLQDKPYIERLNETITQAEKSEIGKYAPFFSLPNAKGEKITRSSDAFKQKSLLINFWASWNDSISQKQSNSELREIYKKYKKNKYIGMLGISLDVDKQQWKDAIKRDTLDWEQVCDFGGLNSEVAKQYSIYKIPANILLSSDGKILAKNLRGEELKKKIENIVEEATEKEKKNKQKK | failed
15 | MVLWHKKDRKLGKHLRSVLSVSNNSPLSPAAFSGFKAVIKGIEKERIAGVGKTEGIKNEKTAGVGKTEGIEKERIAGVGKTEGIENTEGTEKAGEIKNNEKIKKAEETENILEIEKTFRNKKKQGVSKGDVDKENSTAFLYNTEAKKLTFHGNIYEILPLFLNVRNLYASLPFFEELQACAERLEKDPQDATALFQKAVLMYKARRFETALQLTAKVLKIIPDDHRVWYNRGVILSEMGRLEEAIAAYDRTIELEPAFEIAWDNKGVVLARLGRFEEALEIYDKILQKFPEYAEAWAGKGSIFLALDREEEALEAYSSALRIRPEYLEALTSTGSLLSRLGRYEESLKIYDKALQLVPKDPRLLAAKGFVLSEMGKQEEALENCNRALELQPGFVPALEIKVRILSEIGRQKNKTSQ | failed
16 | MTNHQHPQTTTQWIDLIANSELPAITSTARMLDKFSNDDKSSLPKLSEAILHDQGLSSCLLKVANNIQHISINKVTTVSRASVVLGIQSVKNICLTAKLVSSLLASKSLDINVYEQLTQLMANSFYAGMLAKMMVPNYSEEIQEEVYLAAMLYRIGESAFWSAGGDVAKKLANYEAKSPQDFNQYCRKEMGTNFSELSKGLAGTWNLSDLLIKALDQPTTRTDEVKVIYFADKLSAIIAKPEGCEEDYHKLLKEIAYIVGISVRQLTVRIEHTREQAEKLLSSYGAEILTERINSLPTAEDFKSLGGDFDTREVVSKDKALLNGFMKLTKLIQNSKDFNEYLQLTLESLALTFAFDRSSFLMLVDDRARVKSRLVVNKNAQDDASKINIDIKHSDNVIARVISTDTAALINDHQEIRWRDLVTEEISEVIVEGAIAFVPVKIGGKAIGVICLQLLSPDQKIETQDFQQICAFIDHLNMCLTMIKYS | failed
17 | MATEPIRIGVVGASPDRGWAADAHLPALQHLPQYKITAVGTRRADSAHRAARRYGATHAFTDPRSLAAHPDVELVAIVVKVPDHARLVEAALAAGKHVLCEWPLARTTEEAAQLTAAAHGAGVVNAVGLQARHTPTVVRARELIRQGYVGRVTSVTVYSTRGVAAGGRLPAAFAYTLDSTNGAGTLEVAGGHTLDAVQYLLGREMTGLSAALSVQHPRITLDEDARQTGATSPDHVALHATLEGGAALVVHIHDAKNSGAGTRIEISGTQGELAIVSTGPRSGSGLQISELALLGAQGTEPSGQELPFPGSWGTAVPADGLDAAQHTMAVQYAALAADIREGGSRVPRFADGIELHRLLDAVRLSSATGCRLERRAGERWPVSSPWPRRRRSR | failed
18 | MEVFLMIRRKKTTIFAEAQESSTVLELKRIVQGILKRPPEEQLLFKDDQLLDESKTLRDCGFTSQIAKAQDPATVALVFREDASEGVQIHPYSTPLLPSVMKTGTDSLSDEIKSGLDSLSDEIKSGLDSVWCIKPEAAAGMEVFLMIRRKKTTIFAEAQESSTVLELKRIVQGFLKKPPKDQLLFKDNQLLEERKTLRDCGITGRIAKPEDPAILTLEFREDAFQLLHASPFSCPLIGGVLKNGLDFKRD | failed
19 | MAEEHRCETPEGHRLCVNNCGFFGSSATMNLCSNCYGDLCLKQQQQASMKSTVESSLSPVIAPVLENYAAELEIPTTKKTEEKKPIQIPTEQPSPPQRPNRCTVCRKRVGLTGFMCRCGTTFCGSHRYPEVHGCTFDFKSAGREEIAKANPLVIAAKLQKI | failed
20 | MWDALTNWLNLWVGQIEATVFQNVVLPVVYNLGFGGYAEDAFTGTEWLLVGLVQIAVMVLILGPLERLRPVEVVTDRAAIRTDILYTLIHRLGLFRLAMFFLLAPLMDGIEGHLRLLGWQRVNVEDWWPGVTSIPLISFSLYLALFDLLDYWYHRLSHTYRWWWSLHAVHHSQRQMTLWSDNRNHLLDDILRDFVFAAVALAVGVEPSQYVLLVALSQLLQSLQHANLRLHFGWLGERLLISPRFHRTHHAVGLGHEKRATAEKPARLGGCNYGVIFPWWDMLFGTADFTDVYHPTGIRDQMPPPAGRARSYGDGFLSQQWLGIKRLLRLG | failed
21 | MSNDLINGSILHCLETASLGMPLEVWKTRMCVYRNENTIKSFKNIYNKGLGQFYAGFYAKLIESGSKGAVLLLSKEQIIKVCNDMNINKTTSGFIGGACGGICQSLVMTPCTFFITASIDKKINYKEKLIHIFKNTGITTLYKGNTAMCLRQGTNWASRQGITEWIRNIVMERKKNRKNKNDDINNVKGMIFSGNDITTDKIKHNNNNNNNNNTSQSKSLELTTSEELFCGIVGGALSVWNNPFDVVRVYMQNNANKNIKLTFFQSFIHLYKEGGILYLYKGVIPRCFLCIWQTLFMVTGIKILNKYF | failed
